Data on two molecules can be found in US20260216326A1 (PROMETHEUS BIOSCIENCES, published 2026).

Positions count from the first letter of the chain named.

The target of experiment [1] is T1, TL1A in human blood (human, UniProt O95150 72-251, limits assumed).
T1 sequence (looked up): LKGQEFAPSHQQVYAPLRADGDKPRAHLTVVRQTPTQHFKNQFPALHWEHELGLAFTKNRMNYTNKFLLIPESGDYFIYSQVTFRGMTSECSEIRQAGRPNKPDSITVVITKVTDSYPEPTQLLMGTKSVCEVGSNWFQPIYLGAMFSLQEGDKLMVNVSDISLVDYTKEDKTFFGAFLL
The experiment can be described thus: cell-based or functional assay.

Experiment [2] deals with T2, human TL1A (human, UniProt O95150 72-251, limits assumed).
T2 construct: also called tumor necrosis factor-like cytokine 1A; TNFSF15
T2 sequence (looked up): T1 sequence (looked up)
Briefly: ELISA titration on plate-coated human TL1A, unpurified culture supernatant. On the technique in general: In an ELISA, binding on a coated surface is turned into a signal by an enzyme label.

Experiment [3] addresses T1, TL1A in human blood. The experiment can be described thus: cell-based or functional assay. The source holds these as a separate data set.
The target of the next experiment is T3, Murine TL1A (mouse, UniProt Q5UBV8 76-252, limits assumed).
T3 construct: also called mouse TL1A
T3 sequence (looked up): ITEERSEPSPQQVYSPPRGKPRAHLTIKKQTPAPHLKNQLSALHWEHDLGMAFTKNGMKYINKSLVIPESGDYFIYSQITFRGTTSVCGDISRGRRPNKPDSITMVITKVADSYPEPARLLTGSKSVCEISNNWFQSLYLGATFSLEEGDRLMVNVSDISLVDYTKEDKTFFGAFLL
The experiment can be described thus: not named in the table (TL1A binding affinity row).

A further experiment concerns the target T4, Cynomolgus TL1A (cynomolgus monkey, UniProt G7PRK8 72-251).
T4 construct: also called cynomolgus monkey TL1A
T4 sequence: T1 sequence (looked up) with F39L, I78V
Briefly: method not given; three independent measurements, +/- standard deviation.

For experiment [4], the target named is T2, human TL1A. The experiment is described as above.
For experiment [5], the target named is T5, TNFSF6 (FasL) (human, UniProt P48023 134-281, limits assumed).
T5 sequence (looked up): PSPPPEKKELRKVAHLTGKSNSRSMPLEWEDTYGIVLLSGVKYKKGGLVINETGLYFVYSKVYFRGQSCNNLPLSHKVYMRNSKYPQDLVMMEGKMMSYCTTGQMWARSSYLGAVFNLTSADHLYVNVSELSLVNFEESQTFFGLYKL
Briefly: not named in the table (specificity row). The text has this: (§1) TL1A is the only known ligand for its functional receptor DR3. TL1A is also capable of binding to Decoy receptor 3 (DcR3), a soluble TNF receptor without a transmembrane domain.

A further experiment concerns the target T6, TNFSF10 (human, UniProt P50591 114-281, limits assumed).
T6 construct: also called TRAIL
Briefly: not named in the table (specificity row).
From the text: as §1

For experiment [6], the target named is T7, rat recombinant TL1A protein (rat, UniProt Q8K3Y7 76-252, limits assumed).
T7 construct: also called rat TL1A
T7 sequence (looked up): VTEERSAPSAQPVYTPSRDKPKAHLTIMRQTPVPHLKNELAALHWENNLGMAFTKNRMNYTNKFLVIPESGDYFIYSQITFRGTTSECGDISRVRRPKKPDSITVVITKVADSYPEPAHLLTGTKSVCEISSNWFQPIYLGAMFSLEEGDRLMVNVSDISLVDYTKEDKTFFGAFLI
The experiment can be described thus: ELISA, titration of the antibody on recombinant rat TL1A, A450 nm against [Ab] (nM), log axis. The procedure:
(§2) ELISA for each protein was performed at least three times. The data from a representative experiment are shown and are mean±SD. Abbreviations: A=absorbance, Ab=antibody, Cyno=cynomolgus, nm=nanometer, nM=nanomolar. […] Samples were assayed in triplicate, on two separate occasions. Data presented are the mean TL1A concentrations of three animals per group±SD.

Experiment [7] addresses T8, membrane-bound human TL1A on TNFSF15/HEK293 cells (human, UniProt O95150 1-251).
T8 construct: whole, on cells; also called membrane-associated TL1A
T8 sequence (looked up): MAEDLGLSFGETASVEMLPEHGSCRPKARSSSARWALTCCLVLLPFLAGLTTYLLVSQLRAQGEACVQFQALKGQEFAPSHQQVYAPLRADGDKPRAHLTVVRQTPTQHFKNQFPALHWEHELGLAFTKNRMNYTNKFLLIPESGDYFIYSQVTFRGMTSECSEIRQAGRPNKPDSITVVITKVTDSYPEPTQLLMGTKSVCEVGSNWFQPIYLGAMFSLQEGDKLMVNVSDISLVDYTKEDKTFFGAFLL
The experiment can be described thus: binding to TNFSF15/HEK293 cells stably transfected with human TL1A.

Experiment [8] addresses T9, cynomolgus monkey TL1A protein (cynomolgus monkey, UniProt G7PRK8 72-251).
T9 sequence: T1 sequence (looked up) with F39L, I78V
Briefly: cell-based or functional assay.

The target in the next experiment is TNFSF14 (LIGHT) (UniProt O43557 74-240, limits assumed). The experiment can be described thus: ELISA.
Sequence of TNFSF14 (LIGHT) (O43557 74-240 limits assumed): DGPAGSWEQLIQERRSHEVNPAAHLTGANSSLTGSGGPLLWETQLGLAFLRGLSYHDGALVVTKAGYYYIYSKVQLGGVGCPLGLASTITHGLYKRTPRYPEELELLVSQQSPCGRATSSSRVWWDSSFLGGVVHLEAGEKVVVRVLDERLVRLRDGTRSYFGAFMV
From the text: as §1

Experiment [9] deals with T10, TNFSF6 (FasL) (human, UniProt P48023 134-281, limits assumed).
T10 sequence (looked up): T5 sequence (looked up)
Briefly: ELISA.
From the text: as §1

The next experiment addresses TNFSF10 (TRAIL) (human, UniProt P50591 114-281, limits assumed). The experiment can be described thus: ELISA.
From the text: as §1

The target of experiment [10] is T11, recombinant human TL1A protein (tumor necrosis factor-like cytokine 1A) (human, UniProt O95150 72-251, limits assumed).
T11 construct: Recombinant protein used in ELISA, SPR and the TF-1 caspase assay; also called TNFSF15; soluble TL1A
T11 sequence (looked up): T1 sequence (looked up)
The experiment can be described thus: surface plasmon resonance (SPR), recombinant TL1A protein.

Experiment [11] concerns the target T9, cynomolgus monkey TL1A protein. Described as above.
For experiment [12] the target is unchanged. The experiment can be described thus: ELISA on recombinant TL1A protein; cynomolgus monkey TL1A.
Experiment [13] addresses T12, mouse recombinant TL1A protein (mouse, UniProt Q5UBV8 76-252, limits assumed).
T12 construct: also called mouse TL1A; murine TL1A
T12 sequence (looked up): T3 sequence (looked up)
Briefly: ELISA, titration of the antibody on recombinant mouse TL1A, A450 nm against [Ab] (nM), log axis. The procedure:
as §2

Sequence of TNFSF10 (TRAIL) (P50591 114-281 limits assumed): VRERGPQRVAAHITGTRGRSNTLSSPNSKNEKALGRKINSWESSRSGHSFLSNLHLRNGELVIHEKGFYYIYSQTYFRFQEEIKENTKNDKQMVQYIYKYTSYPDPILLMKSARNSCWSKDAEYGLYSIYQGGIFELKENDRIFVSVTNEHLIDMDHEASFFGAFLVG
T6 sequence (P50591 114-281 limits assumed): as above

B1: A219 (antibody, V domains shown)
VH: QVQLVQSGAEVKKPGASVKVSCKASGFDIQDTYMHWVKQRPGQGLEWMGRIDPASGHTKYDPKFQVRVTITRDTSTSTVYLELSSLRSEDTAVYYCARSGGLPDVWGQGTTVTVSS
VL: EIVLTQSPGTLSLSPGERATLSCRASSSVSYMYWYQQKPGQAPRPLIYATSNLASGIPDRFSGSGSGTDFTLTISRLEPEDFAVYYCQQWEGNPRTFGGGTKLEIK
notes: IgG1
Broadly, the % Inhibition is the change of the read-out against control, counted positive when it falls. Broadly, the Kd is the equilibrium constant for the complex coming apart. For B1, the “% Inhibition at 1 nM Ig; interferon gamma release in human blood” value in the experiment with TL1A in human blood [1] came out at 59.8%. For the same molecule, in the experiment with TL1A in human blood [1], the “% Inhibition at 10 nM Ig; interferon gamma release in human blood” value came out at 75.2%. Further, the Kd with human TL1A [2] was 0.05 nM; with Cynomolgus TL1A, 0.0363 nM; with human TL1A [4], 0.059 nM. Besides, the “IC50 values, Mean; inhibition of interferon gamma release from multiple human donors” value with TL1A in human blood [3] was determined as 48.6. For the same molecule, the binding result with Murine TL1A, with TNFSF6 (FasL) [5] and with TNFSF10 was “no binding” throughout.

B2: anti-TL1A antibody A219 (antibody, V domains shown)
VH: B1 VH
VL: B1 VL
notes: Humanized monoclonal IgG1 with a kappa light chain, designed to abolish effector functions
As a reminder, the EC50 is the concentration giving half of the maximal effect. For B2, the binding result in [6] is reported as “no binding (tested: about 30 nM)”; with TNFSF14 (LIGHT), “no binding”; in the experiment with TNFSF6 (FasL) [9] it was “no binding”; with TNFSF10 (TRAIL) it was “no binding”; in experiment [13] it was “no binding (tested: about 30 nM)”. The EC50 in experiment [7] was 17.4 nM; in experiment [12], 0.47 nM. Besides, the “IC50 of inhibition of TL1A-induced caspase activation in cycloheximide-treated TF-1 cells” value in experiment [8] came to 0.59 nM. Further, the “mean IC50 of inhibition of IFN-gamma release in monkey whole blood stimulated with immune complex, IL-12 and IL-18” value in experiment [8] is 1.54 nM. Moreover, the Kd in experiment [10] is 0.06 nM; in [11], 0.04 nM.
